Results as given in IntAct's records for PubMed 20543824.

B1: Nuclear RNAi defective-3 protein (Caenorhabditis elegans), Q21691 (parent)
chain: MDLLDKVMGEMGSKPGSTAKKPATSASSTPRTNVWGTAKKPSSQQQPPKPLFTTPGSQQGSLGGRIPKREHTDRTGPDPKRKPLGGLSVPDSFNNFGTFRVQMNAWNLDISKMDERISRIMFRATLVHTDGRRFELSLGVSAFSGDVNRQQRRQAQCLLFRAWFKRNPELFKGMTDPAIAAYDAAETIYVGCSFFDVELTEHVCHLTEADFSPQEWKIVSLISRRSGSTFEIRIKTNPPIYTRGPNALTLENRSELTRIIEAITDQCLHNEKFLLYSSGTFPTKGGDIASPDEVTLIKSGFVKTTKIVDRDGVPDAIMTVDTTKSPFYKDTSLLKFFTAKMDQLTNSGGGPRGHNGGRERRDGGGNSRKYDDRRSPRDGEIDYDERTVSHYQRQFQDERISDGMLNTLKQSLKGLDCQPIHLKDSKANRSIMIDEIHTGTADSVTFEQKLPDGEMKLTSITEYYLQRYNYRLKFPHLPLVTSKRAKCYDFYPMELMSILPGQRIKQSHMTVDIQSYMTGKMSSLPDQHIKQSKLVLTEYLKLGDQPANRQMDAFRVSLKSIQPIVTNAHWLSPPDMKFANNQLYSLNPTRGVRFQTNGKFVMPARVKSVTIINYDKEFNRNVDMFAEGLAKHCSEQGMKFDSRPNSWKKVNLGSSDRRGTKVEIEEAIRNGVTIVFGIIAEKRPDMHDILKYFEEKLGQQTIQISSETADKFMRDHGGKQTIDNVIRKLNPKCGGTNFLIDVPESVGHRVVCNNSAEMRAKLYAKTQFIGFEMSHTGARTRFDIQKVMFDGDPTVVGVAYSLKHSAQLGGFSYFQESRLHKLTNLQEKMQICLNAYEQSSSYLPETVVVYRVGSGEGDYPQIVNEVNEMKLAARKKKHGYNPKFLVICTQRNSHIRVFPEHINERGKSMEQNVKSGTCVDVPGASHGYEEFILCCQTPLIGTVKPTKYTIIVNDCRWSKNEIMNVTYHLAFAHQVSYAPPAIPNVSYAAQNLAKRGHNNYKTHTKLVDMNDYSYRIKEKHEEIISSEEVDDILMRDFIETVSNDLNAMTINGRNFWA
partner: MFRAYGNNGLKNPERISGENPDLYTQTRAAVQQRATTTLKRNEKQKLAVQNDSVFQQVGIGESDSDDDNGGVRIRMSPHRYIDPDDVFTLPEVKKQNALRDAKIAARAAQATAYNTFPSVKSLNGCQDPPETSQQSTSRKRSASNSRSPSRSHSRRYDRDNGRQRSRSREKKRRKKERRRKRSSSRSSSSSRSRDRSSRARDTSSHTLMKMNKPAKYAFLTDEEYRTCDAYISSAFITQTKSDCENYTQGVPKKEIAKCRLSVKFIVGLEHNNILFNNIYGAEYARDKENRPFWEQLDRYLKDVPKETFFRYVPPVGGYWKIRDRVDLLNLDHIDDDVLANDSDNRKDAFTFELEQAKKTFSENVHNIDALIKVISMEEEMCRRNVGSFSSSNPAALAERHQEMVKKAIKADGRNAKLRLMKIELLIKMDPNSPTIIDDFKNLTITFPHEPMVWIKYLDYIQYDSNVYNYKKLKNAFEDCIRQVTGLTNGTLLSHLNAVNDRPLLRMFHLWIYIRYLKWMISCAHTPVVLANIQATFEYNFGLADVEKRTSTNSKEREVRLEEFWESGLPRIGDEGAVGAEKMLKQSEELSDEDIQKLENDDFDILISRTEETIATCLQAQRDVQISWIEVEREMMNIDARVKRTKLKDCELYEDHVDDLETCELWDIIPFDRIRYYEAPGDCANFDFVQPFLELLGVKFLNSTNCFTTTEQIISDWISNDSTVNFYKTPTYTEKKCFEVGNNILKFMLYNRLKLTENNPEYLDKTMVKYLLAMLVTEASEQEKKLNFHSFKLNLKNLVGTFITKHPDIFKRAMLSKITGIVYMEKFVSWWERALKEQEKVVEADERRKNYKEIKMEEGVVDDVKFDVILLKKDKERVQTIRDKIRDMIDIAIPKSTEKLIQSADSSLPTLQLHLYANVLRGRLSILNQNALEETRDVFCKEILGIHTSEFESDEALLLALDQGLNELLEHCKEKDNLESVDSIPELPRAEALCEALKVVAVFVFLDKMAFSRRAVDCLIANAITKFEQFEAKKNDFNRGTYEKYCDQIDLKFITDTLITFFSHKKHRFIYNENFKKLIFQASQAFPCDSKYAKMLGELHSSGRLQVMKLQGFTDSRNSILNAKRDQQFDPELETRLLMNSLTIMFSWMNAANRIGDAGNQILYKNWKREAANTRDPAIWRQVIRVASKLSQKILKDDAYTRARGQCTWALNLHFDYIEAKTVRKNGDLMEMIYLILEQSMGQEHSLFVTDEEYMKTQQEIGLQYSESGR

Variants of: B1
Conditions: with nrde2_caeel nrde-2, G5EG51

Row | Variant | effect of a mutation on the interaction
1 | K80A;R81A;K82A | disrupting interaction
